Test results reported in US20160272683A1 (Novo Nordisk, published 2016).
Numbered stars: 1 amine (or outer) side, 2 acyl side, 3 side chain; on linkers, the order of the positions; unused ones are H or OH. Square brackets hold non-standard residues; d marks the D form. Side chains are listed from the residue outwards. Ends that are not written are not given here. * marks the point of attachment. C20 diacid = O=C(O)CCCCCCCCCCCCCCCCCCC(=O)*; C18 diacid = O=C(O)CCCCCCCCCCCCCCCCC(=O)*; C16 diacid = O=C(O)CCCCCCCCCCCCCCC(=O)*; γGlu = O=C(O)[C@H](CCC(=O)[*:2])N[*:1]; C14 diacid = O=C(O)CCCCCCCCCCCCC(=O)*

T1: human amylin receptor (human calcitonin receptor + human RAMP3) (human) (UniProt P30988)
T1 sequence (looked up) 1: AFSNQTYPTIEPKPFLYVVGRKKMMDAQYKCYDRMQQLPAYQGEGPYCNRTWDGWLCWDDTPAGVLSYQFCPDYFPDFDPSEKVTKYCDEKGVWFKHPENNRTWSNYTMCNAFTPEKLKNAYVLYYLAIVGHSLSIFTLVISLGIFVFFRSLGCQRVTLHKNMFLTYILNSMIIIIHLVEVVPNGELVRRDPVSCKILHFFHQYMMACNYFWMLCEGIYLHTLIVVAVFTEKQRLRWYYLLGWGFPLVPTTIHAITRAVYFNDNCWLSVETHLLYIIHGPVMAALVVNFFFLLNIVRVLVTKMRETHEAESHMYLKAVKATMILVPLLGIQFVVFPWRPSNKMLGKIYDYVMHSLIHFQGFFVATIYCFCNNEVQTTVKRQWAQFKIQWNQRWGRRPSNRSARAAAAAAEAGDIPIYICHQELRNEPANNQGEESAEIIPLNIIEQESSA
T1 sequence (looked up) 2: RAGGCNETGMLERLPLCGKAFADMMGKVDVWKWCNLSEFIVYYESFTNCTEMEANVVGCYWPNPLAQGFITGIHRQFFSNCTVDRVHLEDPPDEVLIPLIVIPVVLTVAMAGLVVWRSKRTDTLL


Experiments:
[1] = target: T1, human amylin receptor (human calcitonin receptor + human RAMP3) (human); experiment: whole-cell competition vs 125I-rat amylin (Assay Va)
[2] = target: rat calcitonin receptor (rat) (UniProt P32214); experiment: SPA competition vs 125I-calcitonin, membranes with rat CTR (Assay VIII)
[3] = target: rat amylin receptor (rat calcitonin receptor with rat RAMP 3) (rat) (UniProt P32214); experiment: SPA competition vs 125I-rat amylin, membranes with rat CTR + rat RAMP3 (Assay VI)

Sequence of [N-terminal(C18 diacid-gGlu-2xOEG), des1, 4G, 9V, 15Q, 21Q, 23Y, 30S, 31G, 32T, 33Y]mimylin (peptide) (peptide): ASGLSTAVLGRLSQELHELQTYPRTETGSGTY

Molecule	IC50 [1] [nM]	IC50 [2] [nM]	IC50 [3] [nM]
[N-terminal(C18 diacid-gGlu-2xOEG), des1, 4G, 9V, 15Q, 21Q, 23Y, 30S, 31G, 32T, 33Y]mimylin (peptide)	0.801	0.032	0.357
{C14 diacid-γGlu}-ASELSTAALGRLSAELHELATLPRTETGSGSP-NH2 [[N-terminal(C14 diacid-gGlu), des1, 30S, 31G]mimylin]	–	0.017	0.122
Ac-ASELSTAALGRLSAK([γGlu-C20 diacid])LHELATLPRTETGSGSP-NH2 [[N-terminal(acetyl), des1, 16K(C20 diacid-gGlu), 30S, 31G]mimylin]	–	0.042	0.115
Ac-ASELSTAALGRLSAELHK([γGlu-C20 diacid])LATLPRTETGSGSP-NH2 [[N-terminal(acetyl), des1, 19K(C20 diacid-gGlu), 30S, 31G]mimylin]	–	0.071	0.684
{C20 diacid-γGlu}-ASGLSTAVLGRLSQELHELQTYPRTETGSQTY-NH2 (SMILES CC(C)C[C@H](NC(=O)CNC(=O)[C@H](CO)NC(=O)[C@H](C)NC(=O)CC[C@H](NC(=O)CCCCCCCCCCCCCCCCCCC(=O)O)C(=O)O)C(=O)N[C@@H](CO)C(=O)N[C@H](C(=O)N[C@@H](C)C(=O)N[C@H](C(=O)N[C@@H](CC(C)C)C(=O)NCC(=O)N[C@@H](CCCNC(=N)N)C(=O)N[C@@H](CC(C)C)C(=O)N[C@@H](CO)C(=O)N[C@@H](CCC(N)=O)C(=O)N[C@@H](CCC(=O)O)C(=O)N[C@@H](CC(C)C)C(=O)N[C@@H](Cc1c[nH]cn1)C(=O)N[C@@H](CCC(=O)O)C(=O)N[C@@H](CC(C)C)C(=O)N[C@@H](CCC(N)=O)C(=O)N[C@H](C(=O)N[C@@H](Cc1ccc(O)cc1)C(=O)N1CCC[C@H]1C(=O)N[C@@H](CCCNC(=N)N)C(=O)N[C@H](C(=O)N[C@@H](CCC(=O)O)C(=O)N[C@H](C(=O)NCC(=O)N[C@@H](CO)C(=O)N[C@@H](CCC(N)=O)C(=O)N[C@H](C(=O)N[C@@H](Cc1ccc(O)cc1)C(N)=O)[C@@H](C)O)[C@@H](C)O)[C@@H](C)O)[C@@H](C)O)C(C)C)[C@@H](C)O) [[N-terminal(C20 diacid-gGlu), des1, 4G, 9V, 15Q, 21Q, 23Y, 30S, 31Q, 32T, 33Y]mimylin]	–	0.016	0.053
ASELSTAALGRLSAELHK([γGlu-C20 diacid])LATLPRTETGSGSP-NH2 (N-terminus assumed; SMILES CC(C)C[C@H](NC(=O)[C@H](C)NC(=O)[C@H](C)NC(=O)[C@@H](NC(=O)[C@H](CO)NC(=O)[C@H](CC(C)C)NC(=O)[C@H](CCC(=O)O)NC(=O)[C@H](CO)NC(=O)[C@H](C)N)[C@@H](C)O)C(=O)NCC(=O)N[C@@H](CCCNC(=N)N)C(=O)N[C@@H](CC(C)C)C(=O)N[C@@H](CO)C(=O)N[C@@H](C)C(=O)N[C@@H](CCC(=O)O)C(=O)N[C@@H](CC(C)C)C(=O)N[C@@H](Cc1c[nH]cn1)C(=O)N[C@@H](CCCCNC(=O)CC[C@H](NC(=O)CCCCCCCCCCCCCCCCCCC(=O)O)C(=O)O)C(=O)N[C@@H](CC(C)C)C(=O)N[C@@H](C)C(=O)N[C@H](C(=O)N[C@@H](CC(C)C)C(=O)N1CCC[C@H]1C(=O)N[C@@H](CCCNC(=N)N)C(=O)N[C@H](C(=O)N[C@@H](CCC(=O)O)C(=O)N[C@H](C(=O)NCC(=O)N[C@@H](CO)C(=O)NCC(=O)N[C@@H](CO)C(=O)N1CCC[C@H]1C(N)=O)[C@@H](C)O)[C@@H](C)O)[C@@H](C)O) [[des1, 19K(C20 diacid-gGlu), 30S, 31G]mimylin]	–	0.044	0.455
{C20 diacid-γGlu}-ASELSTAALGRLS[dE]ELHELATLPRTETGSGSP-NH2 (SMILES CC(C)C[C@H](NC(=O)[C@H](C)NC(=O)[C@H](C)NC(=O)[C@@H](NC(=O)[C@H](CO)NC(=O)[C@H](CC(C)C)NC(=O)[C@H](CCC(=O)O)NC(=O)[C@H](CO)NC(=O)[C@H](C)NC(=O)CC[C@H](NC(=O)CCCCCCCCCCCCCCCCCCC(=O)O)C(=O)O)[C@@H](C)O)C(=O)NCC(=O)N[C@@H](CCCNC(=N)N)C(=O)N[C@@H](CC(C)C)C(=O)N[C@@H](CO)C(=O)N[C@H](CCC(=O)O)C(=O)N[C@@H](CCC(=O)O)C(=O)N[C@@H](CC(C)C)C(=O)N[C@@H](Cc1c[nH]cn1)C(=O)N[C@@H](CCC(=O)O)C(=O)N[C@@H](CC(C)C)C(=O)N[C@@H](C)C(=O)N[C@H](C(=O)N[C@@H](CC(C)C)C(=O)N1CCC[C@H]1C(=O)N[C@@H](CCCNC(=N)N)C(=O)N[C@H](C(=O)N[C@@H](CCC(=O)O)C(=O)N[C@H](C(=O)NCC(=O)N[C@@H](CO)C(=O)NCC(=O)N[C@@H](CO)C(=O)N1CCC[C@H]1C(N)=O)[C@@H](C)O)[C@@H](C)O)[C@@H](C)O) [[N-terminal(C20 diacid-gGlu), des1, 15e, 30S, 31G]mimylin]	–	0.017	0.017
ASELSTAALGRLSAK([γGlu-C20 diacid])LHELATLPRTETGSGSP-NH2 (N-terminus assumed; SMILES CC(C)C[C@H](NC(=O)[C@H](C)NC(=O)[C@H](C)NC(=O)[C@@H](NC(=O)[C@H](CO)NC(=O)[C@H](CC(C)C)NC(=O)[C@H](CCC(=O)O)NC(=O)[C@H](CO)NC(=O)[C@H](C)N)[C@@H](C)O)C(=O)NCC(=O)N[C@@H](CCCNC(=N)N)C(=O)N[C@@H](CC(C)C)C(=O)N[C@@H](CO)C(=O)N[C@@H](C)C(=O)N[C@@H](CCCCNC(=O)CC[C@H](NC(=O)CCCCCCCCCCCCCCCCCCC(=O)O)C(=O)O)C(=O)N[C@@H](CC(C)C)C(=O)N[C@@H](Cc1c[nH]cn1)C(=O)N[C@@H](CCC(=O)O)C(=O)N[C@@H](CC(C)C)C(=O)N[C@@H](C)C(=O)N[C@H](C(=O)N[C@@H](CC(C)C)C(=O)N1CCC[C@H]1C(=O)N[C@@H](CCCNC(=N)N)C(=O)N[C@H](C(=O)N[C@@H](CCC(=O)O)C(=O)N[C@H](C(=O)NCC(=O)N[C@@H](CO)C(=O)NCC(=O)N[C@@H](CO)C(=O)N1CCC[C@H]1C(N)=O)[C@@H](C)O)[C@@H](C)O)[C@@H](C)O) [[des1, 16K(C20 diacid-gGlu), 30S, 31G]mimylin]	–	0.065	1.3
{C16 diacid}-ASELSTAALGRLSAELHELATLPRTETGSGSP-NH2 [[N-terminal(C16 diacid), des1, 30S, 31G]mimylin]	–	0.011	0.064
{C20 diacid-γGlu}-ASGLSTAVLGKLSQELHELQTYPPTETGSGTY-NH2 (SMILES CC(C)C[C@H](NC(=O)CNC(=O)[C@H](CO)NC(=O)[C@H](C)NC(=O)CC[C@H](NC(=O)CCCCCCCCCCCCCCCCCCC(=O)O)C(=O)O)C(=O)N[C@@H](CO)C(=O)N[C@H](C(=O)N[C@@H](C)C(=O)N[C@H](C(=O)N[C@@H](CC(C)C)C(=O)NCC(=O)N[C@@H](CCCCN)C(=O)N[C@@H](CC(C)C)C(=O)N[C@@H](CO)C(=O)N[C@@H](CCC(N)=O)C(=O)N[C@@H](CCC(=O)O)C(=O)N[C@@H](CC(C)C)C(=O)N[C@@H](Cc1c[nH]cn1)C(=O)N[C@@H](CCC(=O)O)C(=O)N[C@@H](CC(C)C)C(=O)N[C@@H](CCC(N)=O)C(=O)N[C@H](C(=O)N[C@@H](Cc1ccc(O)cc1)C(=O)N1CCC[C@H]1C(=O)N1CCC[C@H]1C(=O)N[C@H](C(=O)N[C@@H](CCC(=O)O)C(=O)N[C@H](C(=O)NCC(=O)N[C@@H](CO)C(=O)NCC(=O)N[C@H](C(=O)N[C@@H](Cc1ccc(O)cc1)C(N)=O)[C@@H](C)O)[C@@H](C)O)[C@@H](C)O)[C@@H](C)O)C(C)C)[C@@H](C)O) [[N-terminal(C20 diacid-gGlu), des1, 4G, 9V, 12K, 15Q, 21Q, 23Y, 25P, 30S, 31G, 32T, 33Y]mimylin]	–	0.246	0.385
{C20 diacid-γGlu}-ASELSTAALGRLSAELHELATLPRTETGSGSY-NH2 (SMILES CC(C)C[C@H](NC(=O)[C@H](C)NC(=O)[C@H](C)NC(=O)[C@@H](NC(=O)[C@H](CO)NC(=O)[C@H](CC(C)C)NC(=O)[C@H](CCC(=O)O)NC(=O)[C@H](CO)NC(=O)[C@H](C)NC(=O)CC[C@H](NC(=O)CCCCCCCCCCCCCCCCCCC(=O)O)C(=O)O)[C@@H](C)O)C(=O)NCC(=O)N[C@@H](CCCNC(=N)N)C(=O)N[C@@H](CC(C)C)C(=O)N[C@@H](CO)C(=O)N[C@@H](C)C(=O)N[C@@H](CCC(=O)O)C(=O)N[C@@H](CC(C)C)C(=O)N[C@@H](Cc1c[nH]cn1)C(=O)N[C@@H](CCC(=O)O)C(=O)N[C@@H](CC(C)C)C(=O)N[C@@H](C)C(=O)N[C@H](C(=O)N[C@@H](CC(C)C)C(=O)N1CCC[C@H]1C(=O)N[C@@H](CCCNC(=N)N)C(=O)N[C@H](C(=O)N[C@@H](CCC(=O)O)C(=O)N[C@H](C(=O)NCC(=O)N[C@@H](CO)C(=O)NCC(=O)N[C@@H](CO)C(=O)N[C@@H](Cc1ccc(O)cc1)C(N)=O)[C@@H](C)O)[C@@H](C)O)[C@@H](C)O) [[N-terminal(C20 diacid-gGlu), des1, 30S, 31G, 33Y]mimylin]	–	0.023	0.029
{C16 diacid-γGlu}-ASELSTAALGRLSAELHELATLPRTETGSGSP-NH2 [[N-terminal(C16 diacid-gGlu), des1, 30S, 31G]mimylin]	–	0.013	0.022
{C18 diacid}-ASELSTAALGRLSAELHELATLPRTETGSGSP-NH2 [[N-terminal(C18 diacid), des1, 30S, 31G]mimylin]	–	0.013	0.063
Ac-ASK([γGlu-C20 diacid])LSTAALGRLSAELHELATLPRTETGSGSP-NH2 [[N-terminal(acetyl), des1, 4K(C20 diacid-gGlu), 30S, 31G]mimylin]	–	0.01	0.046
